Experimental data reported in publication PMC5830916.

Key:
14-3-3 ε = 14-3-3 ε (UniProt P62258); assay: GFP-Trap co-IP, Myc immunoblot; details: reference: wild type
14-3-3 ζ = 14-3-3 ζ (UniProt P63104); assay: GFP-Trap co-IP, Myc immunoblot; details: reference: wild type

Substance	binding against the reference (14-3-3 ε; sites S411)	binding against the reference (14-3-3 ζ; sites S411)	binding against the reference (14-3-3 ε; sites S395)	binding against the reference (14-3-3 ζ; sites S395)
E2F7 (from UniProt Q6S7F2) S411A	lost	lost	–	–
E2F8 (from UniProt Q58FA4) S395A	–	–	lost	lost
